Results as given in US20210284709A1 (JUNO THERAPEUTICS, published 2021).
Residue numbers refer to the chain shown, from its start.

B1: TCR 46 (codon-optimized, cysteine-modified) (TCR, V domains shown)
V domain 1: AQSVTQLDSQVPVFEEAPVELRCNYSSSVSVYLFWYVQYPNQGLQLLLKYLSGSTLVKGINGFEAEFNKSQTSFHLRKPSVHISDTAEYFCAVSPSSGTYKYIFGTGTRLKVLA
V domain 2: GAGVSQTPSNKVTEKGKYVELRCDPISGHTALYWYRQSLGQGPEFLIYFQGTGAADDSGLPNDRFFAVRPEGSVSTLKIQRTERGDSAVYLCASSLYLGGSETQYFGPGTRLLVLE
B2: TCR 37 (codon-optimized, cysteine-modified) (TCR, V domains shown)
V domain 1: ELKVEQNPLFLSMQEGKNYTIYCNYSTTSDRLYWYRQDPGKSLESLFVLLSNGAVKQEGRLMASLDTKARLSTLHITAAVHDLSATYFCAGYSGAGSYQLTFGKGTKLSVIP
V domain 2: GAGVSQSPRYKVAKRGQDVALRCDPISGHVSLFWYQQALGQGPEFLTYFQNEAQLDKSGLPSDRFFAERPEGSVSTLKIQRTQQEDSAVYLCASSLLLGAYGYTFGSGTRLTVVE
B3: TCR 55 (codon-optimized, cysteine-modified) (TCR)
TCR alpha: GEDVEQSLFLSVREGDSSVINCTYTDSSSTYLYWYKQEPGAGLQLLTYIFSNMDMKQDQRLTVLLNKKDKHLSLRIADTQTGDSAIYFCAVPSGATNKLIFGTGTLLAVQPNIQNPDPAVYQLRDSKSSDKSVCLFTDFDSQTNVSQSKDSDVYITDKCVLDMRSMDFKSNSAVAWSNKSDFACANAFNNSIIPEDTFFPSPESSCDVKLVEKSFETDTNLNFQNLSVIGFRILLLKVAGFNLLMTLRLWSS
TCR beta: EPEVTQTPSHQVTQMGQEVILRCVPISNHLYFYWYRQILGQKVEFLVSFYNNEISEKSEIFDDQFSVERPDGSNFTLKIRSTKLEDSAMYFCASTTRSSYEQYFGPGTRLTVTEDLKNVFPPEVAVFEPSEAEISHTQKATLVCLATGFYPDHVELSWWVNGKEVHSGVCTDPQPLKEQPALNDSRYCLSSRLRVSATFWQNPRNHFRCQVQFYGLSENDEWTQDRAKPVTQIVSAEAWGRADCGFTSESYQQGVLSATILYEILLGKATLYAVLVSALVLMAMVKRKDSRG
B4: TCR 31 (codon-optimized, cysteine-modified) (TCR, V domains shown)
V domain 1: DQQVKQNSPSLSVQEGRISILNCDYTNSMFDYFLWYKKYPAEGPTFLISISSIKDKNEDGRFTVFLNKSAKHLSLHIVPSQPGDSAVYFCAASERGTYKYIFGTGTRLKVLA
V domain 2: GAGVSQSPSNKVTEKGKDVELRCDPISGHTALYWYRQSLGQGLEFLIYFQGNSAPDKSGLPSDRFSAERTGGSVSTLTIQRTQQEDSAVYLCASSRFLGSTDTQYFGPGTRLTVLE
B5: TCR 44 (codon-optimized, cysteine-modified) (TCR, V domains shown)
V domain 1: GQNIDQPTEMTATEGAIVQINCTYQTSGFNGLFWYQQHAGEAPTFLSYNVLDGLEEKGRFSSFLSRSKGYSYLLLKELQMKDSASYLCAQYSGGYQKVTFGTGTKLQVIP
V domain 2: DSGVTQTPKHLITATGQRVTLRCSPRSGDLSVYWYQQSLDQGLQFLIQYYNGEERAKGNILERFSAQQFPDLHSELNLSSLELGDSALYFCASSGTPDTQYFGPGTRLTVLE
B6: TCR 50 (codon-optimized, cysteine-modified) (TCR, V domains shown)
V domain 1: GEDVEQSLFLSVREGDSSVINCTYTDSSSTYLYWYKQEPGAGLQLLTYIFSNMDMKQDQRLTVLLNKKDKHLSLRIADTQTGDSAIYFCAESPPGTYKYIFGTGTRLKVLA
V domain 2: DSGVTQTPKHLITATGQRVTLRCSPRSGDLSVYWYQQSLDQGLQFLIHYYNGEERAKGNILERFSAQQFPDLHSELNLSSLELGDSALYFCASSATRDAYGYTFGSGTRLTVVE
B7: TCR 41 (codon-optimized, cysteine-modified) (TCR, V domains shown)
V domain 1: RKEVEQDPGPFNVPEGATVAFNCTYSNSASQSFFWYRQDCRKEPKLLMSVYSSGNEDGRFTAQLNRASQYISLLIRDSKLSDSATYLCVVTFALTGGFKTIFGAGTRLFVKA
V domain 2: EPEVTQTPSHQVTQMGQEVILRCVPISNHLYFYWYRQILGQKVEFLVSFYNNEISEKSEIFDDQFSVERPDGSNFTLKIRSTKLEDSAMYFCASNPRDRVSYEQYFGPGTRLTVTE
B8: TCR 53 (codon-optimized, cysteine-modified) (TCR, V domains shown)
V domain 1: AQSVAQPEDQVNVAEGNPLTVKCTYSVSGNPYLFWYVQYPNRGLQFLLKYITGDNLVKGSYGFEAEFNKSQTSFHLKKPSALVSDSALYFCAVRDFGSGTYKYIFG
V domain 2: GAGVSQSPRYKVTKRGQDVALRCDPISGHVSLYWYRQALGQGPEFLTYFNYEAQQDKSGLPNDRFSAERPEGSISTLTIQRTEQRDSAMYRCASSGSGTSGYNEQFFGPGTRLTVLE
B9: TCR 34 (codon-optimized, cysteine-modified) (TCR, V domains shown)
V domain 1: ELKVEQNPLFLSMQEGKNYTIYCNYSTTSDRLYWYRQDPGKSLESLFVLLSNGAVKQEGRLMASLDTKARLSTLHITAAVHDLSATYFCAVSGTYKYIFGTGTRLKVLA
V domain 2: ETGVTQSPTHLIKTRGQQVTLRCSSQSGHNTVSWYQQALGQGPQFIFQYYREEENGRGNFPPRFSGLQFPNYSSELNVNALELDDSALYLCASSSYAGSYEQYFGPGTRLTVTE
B10: TCR 43 (codon-optimized, cysteine-modified) (TCR, V domains shown)
V domain 1: QKEVEQNSGPLSVPEGAIASLNCTYSDRGSQSFFWYRQYSGKSPELIMFIYSNGDKEDGRFTAQLNKASQYVSLLIRDSQPSDSATYLCAVNVPTSGTYKYIFGTGTRLKVLA
V domain 2: EPEVTQTPSHQVTQMGQEVILRCVPISNHLYFYWYRQILGQKVEFLVSFYNNEISEKSEIFDDQFSVERPDGSNFTLKIRSTKLEDSAMYFCASTPRDSYEQYFGPGTRLTVTE
B11: TCR 36 (codon-optimized, cysteine-modified) (TCR, V domains shown)
V domain 1: RKEVEQDPGPFNVPEGATVAFNCTYSNSASQSFFWYRQDCRKEPKLLMSVYSSGNEDGRFTAQLNRASQYISLLIRDSKLSDSATYLCVVNRDNYGQNFVFGPGTRLSVLP
V domain 2: B10 V domain 2 with S94M, P96G, D98S, S99N
B12: TCR 51 (codon-optimized, cysteine-modified) (TCR, V domains shown)
V domain 1: QKEVEQNSGPLSVPEGAIASLNCTYSDRGSQSFFWYRQYSGKSPELIMSIYSNGDKEDGRFTAQLNKASQYVSLLIRDSQPSDSATYLCAVNMRGGGSNYKLTFGKGTLLTVNP
V domain 2: B10 V domain 2 with S94I, T95A, P96S, D98V
B13: TCR 48 (codon-optimized, cysteine-modified) (TCR, V domains shown)
V domain 1: QKEVEQDPGPLSVPEGAIVSLNCTYSNSAFQYFMWYRQYSRKGPELLMYTYSSGNKEDGRFTAQVDKSSKYISLFIRDSQPSDSATYLCAMRIQGAQKLVFGQGTRLTINP
V domain 2: B10 V domain 2 with P96G, D98V
B14: TCR 40 (codon-optimized, cysteine-modified) (TCR, V domains shown)
V domain 1: GQQVMQIPQYQHVQEGEDFTTYCNSSTTLSNIQWYKQRPGGHPVFLIQLVKSGEVKKQKRLTFQFGEAKKNSSLHITATQTTDVGTYFCAGRNNFNKFYFGSGTKLNVKP
V domain 2: B10 V domain 2 with S94I, P96A, D98S
B15: TCR 47 (codon-optimized, cysteine-modified) (TCR, V domains shown)
V domain 1: QKEVEQNSGPLSVPEGAIASLNCTYSDRGSQSFFWYRQYSGKSPELIMFIYSNGDKEDGRFTAQLNKASQYVSLLIRDSQPSDSATYLCAVNLLSGSARQLTFGSGTQLTVLP
V domain 2: B10 V domain 2 with S94M, P96G, D98T, S99T
B16: TCR 42 (codon-optimized, cysteine-modified) (TCR, V domains shown)
V domain 1: B14 V domain 1 with R92P, N93D
V domain 2: B10 V domain 2 with S94K, P96S, D98S
B17: TCR 49 (codon-optimized, cysteine-modified) (TCR, V domains shown)
V domain 1: B10 V domain 1 with V93I, P94G
V domain 2: B10 V domain 2 with D98Y
B18: TCR 33 (codon-optimized, cysteine-modified) (TCR, V domains shown)
V domain 1: B10 V domain 1 with V93A, P94H, T95H, S96T, T98G, Y99F, Y101T, T105A, K110F, L112K
V domain 2: B10 V domain 2 with S99T
B19: TCR 35 (codon-optimized, cysteine-modified) (TCR, V domains shown)
V domain 1: KDQVFQPSTVASSEGAVVEIFCNHSVSNAYNFFWYLHFPGCAPRLLVKGSKPSQQGRYNMTYERFSSSLLILQVREADAAVYYCAVAGDYKLSFGAGTTVTVRA
V domain 2: DSGVTQTPKHLITATGQRVTLRCSPRSGDLSVYWYQQSLDQGLQFLIQYYNGEERAKGNILERFSAQQFPDLHSELNLSSLELGDSALYFCASTTSGDSSYNEQFFGPGTRLTVLE
B20: TCR 45 (codon-optimized, cysteine-modified) (TCR, V domains shown)
V domain 1: GQQVMQIPQYQHVQEGEDFTTYCNSSTTLSNIQWYKQRPGGHPVFLIQLVKSGEVKKQKRLTFQFGEAKKNSSLHITATQTTDVGTYFCAGSSGAGSYQLTFGKGTKLSVIP
V domain 2: GAGVSQSPSNKVTEKGKDVELRCDPISGHTALYWYRQRLGQGLEFLIYFQGNSAPDKSGLPSDRFSAERTGESVSTLTIQRTQQEDSAVYLCASSLYLGTTGELFFGEGSRLTVLE
B21: TCR 39 (codon-optimized, cysteine-modified) (TCR, V domains shown)
V domain 1: GQQLNQSPQSMFIQEGEDVSMNCTSSSIFNTWLWYKQEPGEGPVLLIALYKAGELTSNGRLTAQFGITRKDSFLNISASIPSDVGIYFCAGYSSSNDYKLSFGAGTTVTVRA
V domain 2: EPEVTQTPSHQVTQMGQEVILRCVPISNHLYFYWYRQILGQKVEFLVSFYNNEISEKSEIFDDQFSVERPDGSNFTLKIRSTKLEDSAMYFCASTPRDRGKEAFFGQGTRLTVVE

biological target: T1, HLA-A2/E7(11-19) tetramer (human; HPV 16); test: flow cytometry, tetramer + anti-CD8; transfected mix of CD8- and CD8+ Jurkat-derived cells;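 further: cells transiently transfected with TCR-encoding plasmids, analysed 48 h afterwards by co-staining with HLA-A*02:01 peptide tetramer and anti-CD8 antibody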
T1 construct: also called E7(11-19) peptide-MHC tetramer; E7 tet
Method: For transfection, the CD4+ and CD4+/CD8+ cell mixtures were transiently transfected with TCR-encoding plasmids and 48 hours after transfection, cells were assessed by flow cytometry for (1) binding of the target peptide in the context of an MHC molecule (HLA:A02:01) by staining with an E6(29-38) peptide- or an E7(11-19) peptide-MHC tetramer reagent, and/or (2) CD8+ independent binding of the target by co-staining the tetramer-labeled cells with an anti-CD8 antibody.

Row | Binder | % cells E7 tet+/CD8+ quadrant | % cells E7 tet+/CD8- quadrant
1 | B1 | 1.27% | 1.21%
2 | B2 | 25.5% | 19.5%
3 | B3 | 1.45% | 0.28%
4 | B4 | 4.52% | 0.042%
5 | B5 | 2.96% | 1.43%
6 | B6 | 3.28% | 0.25%
7 | B7 | 6.07% | 2.41%
8 | B8 | 3.35% | 0.43%
9 | B9 | 26.3% | 26%
10 | B10 | 3.82% | 1.88%
11 | B11 | 23.4% | 16.7%
12 | B12 | 5.7% | 2.06%
13 | B13 | 5.36% | 1.29%
14 | B14 | 7.84% | 1.37%
15 | B15 | 1.98% | 0.71%
16 | B16 | 1.21% | 1.65%
17 | B17 | 5.54% | 3.06%
18 | B18 | 22.6% | 14%
19 | B19 | 14.5% | 7.18%
20 | B20 | 22.4% | 16.9%
21 | B21 | 12.3% | 2.61%
